Source: publication PMC12079668 (2025)
Positions count from the first letter of the chain named. Blank lines part the entries; values can stand above or below the binder they belong to.

Columns and labels:
Assay in all cases: ITC
[1] = molecular target: T1, N-terminal fragment of mouse Cavin1 HR1 domain (residues 45–103) (mouse, UniProt O54724 45-103)
T1 chain: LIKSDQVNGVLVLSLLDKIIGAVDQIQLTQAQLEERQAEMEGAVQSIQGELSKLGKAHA

[2] = molecular target: T2, full-length mouse Cavin1, His-MBP-tagged (mouse, UniProt O54724 1-392)
T2 chain: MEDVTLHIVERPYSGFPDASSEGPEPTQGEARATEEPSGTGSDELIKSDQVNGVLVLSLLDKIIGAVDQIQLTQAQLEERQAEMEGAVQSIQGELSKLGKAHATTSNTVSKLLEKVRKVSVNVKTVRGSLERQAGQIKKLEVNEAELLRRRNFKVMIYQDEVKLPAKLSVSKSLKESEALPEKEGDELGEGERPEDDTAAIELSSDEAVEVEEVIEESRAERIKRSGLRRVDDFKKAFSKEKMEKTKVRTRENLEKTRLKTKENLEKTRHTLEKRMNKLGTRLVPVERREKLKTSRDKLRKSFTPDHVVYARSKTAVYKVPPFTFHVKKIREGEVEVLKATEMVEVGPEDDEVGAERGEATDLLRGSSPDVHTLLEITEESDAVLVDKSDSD

[3] = molecular target: T3, mouse Cavin1 HR1 domain 5Q mutant (mouse, UniProt O54724 45-155, Lys115 to glutamine | Arg117 to glutamine | Lys118 to glutamine | Lys124 to …)
T3 sequence: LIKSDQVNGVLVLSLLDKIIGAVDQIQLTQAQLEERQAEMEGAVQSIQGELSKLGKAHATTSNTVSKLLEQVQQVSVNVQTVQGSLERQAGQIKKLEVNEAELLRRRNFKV

[4] = molecular target: T4, mouse Cavin1 HR1 domain (residues 45–155), His-Ub-tagged (mouse, UniProt O54724 45-155)
T4 chain: T3 sequence with Q71K, Q73R, Q74K, Q80K, Q83R

- Kd [1]: 451 nM
- Kd [2]: 1730 nM
B1: nanobody NbB7 (VHH)
VHH: QVQLQESGGGLVQAGGSLRLSCAVSGIRVNVNAMYWYRQAPGKQRELVAIITTFGSTNYADSAKGRFTISRDNTKNTVYLQMDNLKPEDTAVYYCNAPQFTDRYWGQGTQVTVSS

- Kd [1]: 555 nM
- Kd [3]: 143 nM
- Kd [2]: 8880 nM
- Kd [4]: 500 nM
B2: nanobody NbA12 (VHH)
VHH: QVQLQESGGGLVQAGGSLRLSCAASGFTFDDYAIGWFRQAPGKEREGVSCITSSDGSTYYADSVKGRFTISSDNAKNTVYLQMNSLKPEDTAVYYCAAESWPPLCHYSGMDYWGKGTQVTVSS
